Source: PMC4521584

B1: WT MutS, full length [E. coli] / WT His6-MutL, full length [E. coli] (parent)
chain 1: MPIQVLPPQLANQIAAGEVVERPASVVKELVENSLDAGATRIDIDIERGGAKLIRIRDNGCGIKKDELALALARHATSKIASLDDLEAIISLGFRGEALASISSVSRLTLTSRTAEQQEAWQAYAEGRDMNVTVKPAAHPVGTTLEVLDLFYNTPARRKFLRTEKTEFNHIDEIIRRIALARFDVTINLSHNGKIVRQYRAVPEGGQKERRLGAICGTAFLEQALAIEWQHGDLTLRGWVADPNHTTPALAEIQYCYVNGRMMRDRLINHAIRQACEDKLGADQQPAFVLYLEIDPHQVDVNVHPAKHEVRFHQSRLVHDFIYQGVLSVLQQQLETPLPLDDEPQPAPRSIPENRVAAGRNHFAEPAAREPVAPRYTPAPASGSRPAAPWPNAQPGYQKQQGEVYRQLLQTPAPMQKLKAPEPQEPALAANSQSFGRVLTIVHSDCALLERDGNISLLSLPVAERWLRQAQLTPGEAPVCAQPLLIPLRLKVSAEEKSALEKAQSALAELGIDFQSDAQHVTIRAVPLPLRQQNLQILIPELIGYLAKQSVFEPGNIAQWIARNLMSEHAQWSMAQAITLLADVERLCPQLVKTPPGGLLQSVDLHPAIKALKDE
chain 2: MSAIENFDAHTPMMQQYLRLKAQHPEILLFYRMGDFYELFYDDAKRASQLLDISLTKRGASAGEPIPMAGIPYHAVENYLAKLVNQGESVAICEQIGDPATSKGPVERKVVRIVTPGTISDEALLQERQDNLLAAIWQDSKGFGYATLDISSGRFRLSEPADRETMAAELQRTNPAELLYAEDFAEMSLIEGRRGLRRRPLWEFEIDTARQQLNLQFGTRDLVGFGVENAPRGLCAAGCLLQYAKDTQRTTLPHIRSITMEREQDSIIMDAATRRNLEITQNLAGGAENTLASVLDCTVTPMGSRMLKRWLHMPVRDTRVLLERQQTIGALQDFTAGLQPVLRQVGDLERILARLALRTARPRDLARMRHAFQQLPELRAQLETVDSAPVQALREKMGEFAELRDLLERAIIDTPPVLVRDGGVIASGYNEELDEWRALADGATDYLERLEVRERERTGLDTLKVGFNAVHGYYIQISRGQSHLAPINYMRRQTLKNAERYIIPELKEYEDKVLTSKGKALALEKQLYEELFDLLLPHLEALQQSASALAELDVLVNLAERAYTLNYTCPTFIDKPGIRITEGRHPVVEQVLNEPFIANPLNLSPQRRMLIITGPNMGGKSTYMRQTALIALMAYIGSYVPAQKVEIGPIDRIFTRVGAADDLASGRSTFMVEMTETANILHNATEYSLVLMDEIGRGTSTYDGLSLAWACAENLANKIKALTLFATHYFELTQLPEKMEGVANVHLDALEHGDTIAFMHSVQDGAASKSYGLAVAALAGVPKEVIKRARQKLRELESISPNAAATQVDGTQMSLLSVPEETSPAVEALENLDPDSLTPRQALEWIYRLKSLV

Variants of: B1
Test: SPR
Conditions: with WT His6-MutL, MutS sliding clamps pre-formed on 100-bp end-blocked DNA in the presence of ATP, value read at the highest MutL concentration (last point, est. about 5,000 …), read off a plot

Work on chain 2 P595A I597A M759D yielded a response of 8%.

Same assay, conditions: with WT MutS, MutS sliding clamps pre-formed on 100-bp end-blocked DNA in the presence of ATP, value read at the highest MutL concentration (last point, est. about 5,000 …), read off a plot

In order of falling response:
1. chain 1 K52C  13%
2. chain 1 A138E  11%
3. chain 1 A138E H139A  3%
4. chain 1 R55D R57D A138E H139A  -1%
5. chain 1 R55D R57D  -7%
